Positions count from the first letter of the chain named.

Holding throughout (experiment): EMSA; glutaraldehyde-fixed; ssDNA EMSA: 10 nM DNA, 50 mM potassium phosphate pH 6.0, 5 mM EDTA, 5% glycerol, 0.1 mg/ml BSA, 37°C, 40 min, then 0.1% glutaraldehyde; second-strand EMSA: 5 nM each strand, 20 mM Tris-HCl pH 7.5, 5 mM MgCl2, 1 mM DTT, 0.1 mg/ml BSA, 37°C
One data set deals with T1, Redβ D80A (Bacteriophage λ (Enterobacteria phage λ), UniProt P03698 1-261, D80A).
T1 sequence: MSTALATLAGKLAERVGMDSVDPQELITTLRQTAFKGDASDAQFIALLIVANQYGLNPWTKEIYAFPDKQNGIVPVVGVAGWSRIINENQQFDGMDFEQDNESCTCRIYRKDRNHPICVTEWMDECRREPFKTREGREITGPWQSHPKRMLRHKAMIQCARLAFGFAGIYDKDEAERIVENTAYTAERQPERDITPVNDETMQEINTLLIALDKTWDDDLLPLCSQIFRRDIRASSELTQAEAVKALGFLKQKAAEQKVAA
The conditions noted are these: protein: recombinant; tags: His6 removed; N-terminal GSH left; label: 5' Cy3.

In a further data set the target is T2, Redβ V79A (Bacteriophage λ (Enterobacteria phage λ), UniProt P03698 1-261, V79A).
T2 sequence: T1 sequence with V79A, A80D
The conditions noted are these: protein: recombinant; tags: His6 removed; N-terminal GSH left; label: 5' Cy3.

A further data set has as its target T3, Redβ K148A (Bacteriophage λ (Enterobacteria phage λ), UniProt P03698 1-261, K148A).
T3 sequence: T1 sequence with A80D, K148A
The conditions noted are these: protein: recombinant; tags: His6 removed; N-terminal GSH left; label: 5' Cy3.

The target of another data set is T4, Redβ K172A (Bacteriophage λ (Enterobacteria phage λ), UniProt P03698 1-261, K172A).
T4 sequence: T1 sequence with A80D, K172A
The conditions noted are these: protein: recombinant; tags: His6 removed; N-terminal GSH left; label: 5' Cy3.

In another data set the target is T5, Redβ R161A (Bacteriophage λ (Enterobacteria phage λ), UniProt P03698 1-261, R161A).
T5 sequence: T1 sequence with A80D, R161A
The conditions noted are these: protein: recombinant; tags: His6 removed; N-terminal GSH left; label: 5' Cy3.

Another data set deals with T6, Redβ WT (Bacteriophage λ (Enterobacteria phage λ), UniProt P03698 1-261).
T6 sequence: T1 sequence with A80D
The conditions noted are these: protein: recombinant; tags: N-terminal His6 removed by thrombin; Gly-Ser-His left before Met1; label: 5' Cy3.

B1: 50-minus ssDNA (ssDNA)
DNA: TGCGGATGGCTTAGAGCTTAATTGCTGAATCTGGTGCTGTAGCTCAACAT
Regarding B1, the binding signal in the data set with Redβ D80A is 87 % of WT binding at 3 µM protein; with Redβ V79A, 21 % of WT binding at 3 µM protein; with Redβ K148A, 43 % of WT binding at 3 µM protein; with Redβ K172A it was 76 % of WT binding at 3 µM protein; with Redβ R161A, 11 % of WT binding at 3 µM protein. Further, the binding result with Redβ WT is given as “binds”.

The values above are taken from article PMC3823998, “Structural and Functional Characterization of the Redβ Recombinase from Bacteriophage λ” (PLoS ONE, 2013).
